Among the data in article PMC4533773 (International Journal of Molecular Medicine, 2015) are Kd, koff and kon values, retold here.

The Kd is the concentration at which binding is half-saturated. High values mean weaker binding, low ones tighter binding. Usually koff stands for the first-order rate constant of dissociation. A lower koff goes with a long-lived complex. In general, kon refers to the rate constant with which the complex forms.

For the assay, the target named is T1, AIM (analyte of the BLI experiment) (UniProt Q9QWK4 22-352).
T1 sequence (looked up): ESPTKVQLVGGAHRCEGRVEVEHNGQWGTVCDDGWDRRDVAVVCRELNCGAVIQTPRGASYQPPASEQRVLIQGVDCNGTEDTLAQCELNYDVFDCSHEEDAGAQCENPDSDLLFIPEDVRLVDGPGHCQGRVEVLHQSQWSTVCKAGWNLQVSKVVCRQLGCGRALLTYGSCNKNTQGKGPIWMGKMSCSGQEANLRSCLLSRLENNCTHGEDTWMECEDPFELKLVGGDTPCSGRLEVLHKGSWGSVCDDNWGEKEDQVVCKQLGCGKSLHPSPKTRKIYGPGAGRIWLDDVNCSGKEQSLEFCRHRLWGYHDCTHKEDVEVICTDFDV
In words: BLI. (In BLI a coated tip is dipped into the sample, and binding shifts an interference pattern.)

B1: Biotinylated IGFBP-4 (natural protein, UniProt P47879 22-254, looked up)
chain: DEAIHCPPCSEEKLARCRPPVGCEELVREPGCGCCATCALGLGMPCGVYTPRCGSGMRCYPPRGVEKPLRTLMHGQGVCTELSEIEAIQESLQTSDKDESEHPNNSFNPCSAHDHRCLQKHMAKIRDRSKMKIVGTPREEPRPVPQGSCQSELHRALERLAASQSRTHEDLFIIPIPNCDRNGNFHPKQCHPALDGQRGKCWCVDRKTGVKLPGGLEPKGELDCHQLADSFQE
modifications: biotin (labelled after purification; sites not stated)
The molecule B1 displayed a Kd of 25.3 nM, a koff of 0.000999 s⁻¹ and a kon of 39600 M⁻¹ s⁻¹.
